To fix the notation:
B1: G1/280_02_G02_NS (antibody, human IgG1)
heavy: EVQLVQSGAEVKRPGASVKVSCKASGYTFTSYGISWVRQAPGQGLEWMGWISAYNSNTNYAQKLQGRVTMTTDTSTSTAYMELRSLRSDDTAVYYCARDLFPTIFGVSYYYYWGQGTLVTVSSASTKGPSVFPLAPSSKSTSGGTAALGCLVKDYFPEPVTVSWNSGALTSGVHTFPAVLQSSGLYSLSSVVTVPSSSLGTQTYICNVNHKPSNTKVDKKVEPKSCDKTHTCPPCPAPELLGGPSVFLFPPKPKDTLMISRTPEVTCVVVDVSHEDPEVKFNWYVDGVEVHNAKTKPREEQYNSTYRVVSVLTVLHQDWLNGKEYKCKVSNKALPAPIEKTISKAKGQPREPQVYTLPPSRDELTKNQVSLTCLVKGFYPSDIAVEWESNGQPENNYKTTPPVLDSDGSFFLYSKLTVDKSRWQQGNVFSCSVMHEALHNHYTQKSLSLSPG
light: QSALTQPASVSGSPGQSITISCTGTSSDVGGYNSVSWYQQFPGKAPKLMIFEVTNRPSGVSDRFSGSKSDNTASLTISGLQAEDEAEYYCSSFKRGSTLVVFGGGTKLTVLGQPAAAPSVTLFPPSSEELQANKATLVCLISDFYPGAVTVAWKADSSPVKAGVETTTPSKQSNNKYAASSYLSLTPEQWKSHRSYSCQVTHEGSTVEKTVAPTECS
notes: IgG1 without LALA, lambda light chain; NG to NS variant of G1/280_02_G02
B2: G1/929_01_A01 (antibody, human IgG1, V domains shown)
VH: EVQLVQSGAEVKRPGASVKVSCKASGYTFTSYGISWVRQAPGQGLEWMGWISAYGGSTNYAQKLQGRVTMTTDTSTSTAYMELRSLRSDDTAVYYCARDLFPTIFGVSYYYYWGQGTLVTVSS
VL: DIQMTQSPSTLSASVRDRVIITCRASQSIGNRLAWYQHKPGKAPKLLIYEASTSETGVPSRFSGSGSGTDFTLTISSLQPEDFATYYCQQSYSTPYTFGQGTKLEIKR
notes: IgG1; The heavy chain as printed has T28
B3: G1/929_01_A05 (antibody, human IgG1, V domains shown)
VH: B2 VH with G55S, S57G
VL: DIQMTQSPSTLSASVGDRVTITCRASQSISGRLAWYQQKPGKAPNLLIYEASNLESGVPSRFSGSGSGTEFTLTINSLQPDDFATYYCQQANTFPRVSFGGGTKVEIKR
notes: IgG1
B4: G1/929_01_A07 (antibody, human IgG1, V domains shown)
VH: B2 VH
VL: B3 VL with N76S, D81E, A91S, N92Y, T93S, F94T, S98T, G101Q
notes: IgG1; GGST variant of G1/894_08_E05
B5: G1/929_01_A09 (antibody, human IgG1, V domains shown)
VH: B2 VH with G55S, S57N, T58A
VL: B3 VL with N76S, D81E, A91S, N92Y, T93S, F94T, S98T, G101Q
notes: IgG1; SGNA variant of G1/894_08_E05
B6: G1/929_01_A06 (antibody, human IgG1, V domains shown)
VH: B2 VH with G55S, S57N, T58A
VL: B3 VL
notes: IgG1
B7: G1/929_01_A08 (antibody, human IgG1)
heavy: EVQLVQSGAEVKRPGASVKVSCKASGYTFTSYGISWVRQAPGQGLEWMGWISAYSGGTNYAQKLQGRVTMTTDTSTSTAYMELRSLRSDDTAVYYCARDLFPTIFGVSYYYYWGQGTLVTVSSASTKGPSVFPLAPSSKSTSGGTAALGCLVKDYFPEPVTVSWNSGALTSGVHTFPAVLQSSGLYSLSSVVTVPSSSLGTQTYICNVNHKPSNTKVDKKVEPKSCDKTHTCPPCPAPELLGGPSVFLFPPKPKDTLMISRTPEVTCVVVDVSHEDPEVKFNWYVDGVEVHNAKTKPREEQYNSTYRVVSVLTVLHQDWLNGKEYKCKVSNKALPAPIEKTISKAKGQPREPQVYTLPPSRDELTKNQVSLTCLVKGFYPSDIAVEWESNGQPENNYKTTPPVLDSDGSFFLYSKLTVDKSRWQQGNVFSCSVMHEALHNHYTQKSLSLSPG
light: DIQMTQSPSTLSASVGDRVTITCRASQSISGRLAWYQQKPGKAPNLLIYEASNLESGVPSRFSGSGSGTEFTLTISSLQPEDFATYYCQQSYSTPRVTFGQGTKVEIKRTAAAAPSVFIFPPSDEQLKSGTASVVCLLNNFYPREAKVQWKVDNALQSGNSQESVTEQDSKDSTYSLSSTLTLSKADYEKHKLYACEVTHQGLSSPVTKSFNRGEC
notes: IgG1; SGGT variant of G1/894_08_E05; said to be the same as G1AA/E05v2 but without the LALA mutation
B8: G1/929_01_A04 (antibody, human IgG1, V domains shown)
VH: B2 VH
VL: B3 VL
notes: IgG1; GGST variant of G1/894_08_A05
B9: G1/894_08_A05 (antibody, human IgG1, V domains shown)
VH: B2 VH with G55N, G56S, S57N
VL: B3 VL
notes: IgG1 without LALA, kappa light chain
B10: G1/929_01_A03 (antibody, human IgG1, V domains shown)
VH: B2 VH with G55S, S57N, T58A
VL: B2 VL
notes: IgG1
B11: G1/929_01_A11 (antibody, human IgG1)
heavy: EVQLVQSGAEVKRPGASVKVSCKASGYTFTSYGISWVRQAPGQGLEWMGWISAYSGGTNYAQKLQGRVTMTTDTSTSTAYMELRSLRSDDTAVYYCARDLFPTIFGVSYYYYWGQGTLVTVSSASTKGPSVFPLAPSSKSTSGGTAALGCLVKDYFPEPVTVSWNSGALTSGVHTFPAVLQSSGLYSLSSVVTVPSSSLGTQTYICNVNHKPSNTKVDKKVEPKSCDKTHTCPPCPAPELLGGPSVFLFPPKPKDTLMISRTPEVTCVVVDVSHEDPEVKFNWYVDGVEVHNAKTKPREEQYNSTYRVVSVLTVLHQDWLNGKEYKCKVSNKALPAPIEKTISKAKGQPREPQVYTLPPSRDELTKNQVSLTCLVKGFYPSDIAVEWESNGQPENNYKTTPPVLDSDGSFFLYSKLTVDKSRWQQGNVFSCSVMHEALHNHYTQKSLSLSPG
light: DIQMTQSPSTLSASVGDRVTITCRASQSISGRLAWYQQKPGKAPNLLIYEASNLESGVPSRFSGSGSGTEFTLTISSLQPEDFATYYCQQSYSWPRTFGQGTKVEIKRTAAAAPSVFIFPPSDEQLKSGTASVVCLLNNFYPREAKVQWKVDNALQSGNSQESVTEQDSKDSTYSLSSTLTLSKADYEKHKLYACEVTHQGLSSPVTKSFNRGEC
notes: IgG1; said to be the same as G1AA/G12v2 but without LALA
B12: G1/929_01_A12 (antibody, human IgG1, V domains shown)
VH: B2 VH with G55S, S57N, T58A
VL: DIQMTQSPSTLSASVGDRVTITCRASQSISGRLAWYQQKPGKAPNLLIYEASNLESGVPSRFSGSGSGTEFTLTISSLQPEDFATYYCQQSYSWPRTFGQGTKVEIKR
notes: IgG1
B13: G1/929_01_A10 (antibody, human IgG1, V domains shown)
VH: B2 VH
VL: B12 VL
notes: IgG1
B14: G1AA/E12v2 (antibody, human IgG1, kappa, L234A L235A, V domains shown)
VH: B2 VH with T28P, G55S, S57G
VL: B2 VL
notes: IgG1 with LALA, kappa light chain; SGGT at 54-57 and proline at Kabat 28 of VH
B15: G1AA/lambdav3 (antibody, human IgG1, L234A L235A, V domains shown)
VH: B2 VH with G55S, S57G
VL: QSALTQPASVSGSPGQSITISCTGTSSDVGGYNYVSWYQQFPGKAPKLMIFEVTNRPSGVSDRFSGSKSDNTASLTISGLQAEDEAEYYCSSFKRGSTLVVFG
notes: IgG1 with LALA, lambda light chain; also called G1AA/lamdav3
B16: G1AA/E05v2 (antibody, human IgG1, kappa, L234A L235A)
heavy: not shown
light: DIQMTQSPSTLSASVGDRVTITCRASQSISGRLAWYQQKPGKAPNLLIYEASNLESGVPSRFSGSGSGTEFTLTISSLQPEDFATYYCQQSYSTPRVTFGQGTKVEIKRTVAAPSVFIFPPSDEQLKSGTASVVCLLNNFYPREAKVQWKVDNALQSGNSQESVTEQDSKDSTYSLSSTLTLSKADYEKHKVYACEVTHQGLSSPVTKSFNRGEC
notes: IgG1 with LALA, kappa light chain
B17: G1AA/G12v2 (antibody, human IgG1, kappa, L234A L235A)
heavy: not shown
light: DIQMTQSPSTLSASVGDRVTITCRASQSISGRLAWYQQKPGKAPNLLIYEASNLESGVPSRFSGSGSGTEFTLTISSLQPEDFATYYCQQSYSWPRTFGQGTKVEIKRTVAAPSVFIFPPSDEQLKSGTASVVCLLNNFYPREAKVQWKVDNALQSGNSQESVTEQDSKDSTYSLSSTLTLSKADYEKHKVYACEVTHQGLSSPVTKSFNRGEC
notes: as for B16
B18: G1AA/280_02_G02_NS (antibody, human IgG1, L234A L235A)
heavy: not shown
light: B1 light
notes: also called G1AA/280_2_G02_NS

Changes are numbered by the printed parent chain.

T3 sequence (Q9NZQ7 19-238 limits assumed): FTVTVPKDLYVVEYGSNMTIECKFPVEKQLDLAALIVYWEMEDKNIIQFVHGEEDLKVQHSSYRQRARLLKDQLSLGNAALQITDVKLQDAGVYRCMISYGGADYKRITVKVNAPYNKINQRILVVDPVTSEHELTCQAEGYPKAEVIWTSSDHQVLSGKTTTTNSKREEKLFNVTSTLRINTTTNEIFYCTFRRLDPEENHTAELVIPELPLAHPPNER
Sequence of PD-L1 on PD-L1 cells (Promega, CS178103; PD1/PD-L1 Blockade Bioassay J1250/J1255) (Q9NZQ7 19-290): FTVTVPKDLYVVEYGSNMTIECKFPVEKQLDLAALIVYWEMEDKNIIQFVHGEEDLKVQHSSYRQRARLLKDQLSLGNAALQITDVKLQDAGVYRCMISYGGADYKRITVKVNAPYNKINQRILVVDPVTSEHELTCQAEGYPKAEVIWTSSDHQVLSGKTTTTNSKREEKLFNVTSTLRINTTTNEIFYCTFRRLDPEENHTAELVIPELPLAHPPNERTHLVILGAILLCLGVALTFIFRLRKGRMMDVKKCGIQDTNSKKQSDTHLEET

One test addresses PD-L1 on PD-L1 cells (Promega, CS178103; PD1/PD-L1 Blockade Bioassay J1250/J1255) (UniProt Q9NZQ7 19-290). Put plainly: cell-based or functional assay.
Regarding B1, the “IC50 (nM), PD1/PD-L1 Blockade Bioassay” value was found to be 0.51 nM.

For a further test, the target named is T1, human PD-L1-rCD4-His (human).
T1 construct: Human PD-L1 fused to the monomeric C-terminal rat CD4 domains 3 and 4 tag and His tag; made in HEK293; The entry as printed begins with the signal peptide (MRIF...); also called hPD-L1-rCD4-His; hu-PD-L1-rCD4-His
T1 sequence (chain, as listed by the source limits assumed): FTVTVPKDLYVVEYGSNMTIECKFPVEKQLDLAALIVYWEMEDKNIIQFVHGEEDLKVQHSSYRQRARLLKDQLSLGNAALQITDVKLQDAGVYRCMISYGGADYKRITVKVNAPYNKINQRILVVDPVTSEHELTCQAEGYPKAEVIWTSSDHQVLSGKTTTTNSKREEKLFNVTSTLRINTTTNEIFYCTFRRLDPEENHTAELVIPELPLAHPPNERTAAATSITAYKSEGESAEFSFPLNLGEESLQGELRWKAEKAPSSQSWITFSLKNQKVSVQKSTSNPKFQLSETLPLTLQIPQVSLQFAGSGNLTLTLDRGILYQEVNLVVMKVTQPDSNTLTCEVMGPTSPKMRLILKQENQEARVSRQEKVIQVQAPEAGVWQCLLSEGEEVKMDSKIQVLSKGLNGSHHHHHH
The test can be described thus: SPR, IgG1 from culture supernatant.
For B2, the Kd (usually the constant that tells how readily two partners part at equilibrium) worked out at 2660 pM.
On the same count and under the same terms, then B3, with 550 pM; and B4, with 470 pM; and B5, with 490 pM.
The same measure, in the same setting: then B6, with 450 pM; and B7, with 500 pM.
The same measure, in the same setting: then B8, with 470 pM; and B9, with 420 pM.
On to B10, for which binding was put at a Kd of 2660 pM.
On the same count and under the same terms, then B11, with 510 pM.
Regarding B12, the affinity, expressed as Kd, was 510 pM.
B13 had a Kd of 420 pM.
The same measure, in the same setting: then B1, with 1200 pM.

The target in another test is T2, Cyno PD-L1-rCD4-His (cynomolgus).
T2 construct: The entry as printed begins with the signal peptide; also called cynomolgus PD-L1-rCD4-His
T2 sequence (chain, as listed by the source limits assumed): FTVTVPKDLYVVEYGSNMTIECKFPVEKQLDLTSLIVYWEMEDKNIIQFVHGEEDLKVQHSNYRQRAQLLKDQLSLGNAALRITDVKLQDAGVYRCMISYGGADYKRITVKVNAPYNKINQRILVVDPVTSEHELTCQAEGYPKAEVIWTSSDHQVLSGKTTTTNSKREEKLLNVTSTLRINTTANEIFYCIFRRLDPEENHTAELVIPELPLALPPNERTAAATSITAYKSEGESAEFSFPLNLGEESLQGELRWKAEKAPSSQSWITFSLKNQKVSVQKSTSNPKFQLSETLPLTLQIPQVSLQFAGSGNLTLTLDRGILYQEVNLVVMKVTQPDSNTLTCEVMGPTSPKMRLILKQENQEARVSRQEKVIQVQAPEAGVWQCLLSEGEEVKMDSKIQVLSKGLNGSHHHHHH
Put plainly: SPR, IgG1 from culture supernatant. A general note: SPR reads the build-up and loss of mass on a sensor chip optically.
For B2, the Kd came out at 3180 pM.
Same read-out and setting: then B3, with 620 pM; and B4, with 590 pM; and B5, with 570 pM.
The molecule B6 yielded a Kd of 580 pM.
Still for that read-out and setting: then B7, with 650 pM; and B8, with 600 pM; and B9, with 570 pM.
The same measure, in the same setting: then B10, with 3310 pM.
For the molecule B11, the dissociation constant (Kd) came to 570 pM.
The same measure, in the same setting: then B12, with 660 pM; and B13, with 600 pM; and B1, with 1800 pM.

The next test addresses T3, biotinylated human PD-L1-Avi-His (Acro Biosystems, PD1-H82E5) (human, UniProt Q9NZQ7 19-238, biotinylated).
T3 construct: Bought
Put plainly: SPR as in Example 3.2, mAb on Protein A chip. As for the experimental part: (§1) Briefly, the anti-PD-L1 mAbs, diluted in HBS-EP buffer (GE Healthcare, BR100188) at 2 μg/ml, were injected individually on flows cell 2, 3 and 4 of a Protein A chip (GE Healthcare, 29127556) at 30 μl/min to achieve a final response of approximately 110 RU. The recombinant human, cynomolgus and mouse PD-L1-His antigens, diluted in HBS-EP buffer, were injected on flow cell 1, 2, 3 or 4 as appropriate at a concentration range of 81 nM to 0.037 nM with 3-fold dilutions for 4 min at 75 μl/min and then allowed to dissociate in buffer for 10 min. Regeneration was achieved by injecting 10 mM glycine-HCL pH1.5 (GE Healthcare, Human Antibody Capture Kit, BR00356) for 30 sec at a rate of 30 μl/min. Subtracted data (flow cell 2-flow cell 1, flow cell 3-flow cell 1, or flow cell 4-flow cell 1) were analysed using BIAevaluation 3.2 Software (GE Healthcare) to identify binding using the model 1:1 binding with mass transfer, with refractive index (RI) constant 0. To determine the affinities of the mouse PD-L1 binding curves, the Rmax of the corresponding human binding profiles was used.
The molecule B14 gave a Kd of 210 pM.
On to B15, for which the Kd was determined as 1340 pM.
On the same count and under the same terms, then B16, with 500 pM; and B17, with 440 pM.

The target in another test is T4, cynomolgus PD-L1-His (Acro Biosystems, PD1-C52H4) (cynomolgus, UniProt G7PSE7 19-239).
T4 construct: Bought; also called Cyno PD-L1-His
T4 sequence (G7PSE7 entry or part of it): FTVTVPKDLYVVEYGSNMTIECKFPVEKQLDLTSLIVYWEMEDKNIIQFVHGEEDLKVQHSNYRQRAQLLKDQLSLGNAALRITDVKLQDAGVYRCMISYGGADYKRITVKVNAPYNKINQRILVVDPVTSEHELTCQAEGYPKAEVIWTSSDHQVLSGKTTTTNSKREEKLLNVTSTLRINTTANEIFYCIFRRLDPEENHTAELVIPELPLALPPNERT
Put plainly: SPR as in Example 3.2, mAb on Protein A chip. On the procedure: as §1
Turning to B14, the Kd was determined as 370 pM.
Same read-out and setting: then B15, with 2450 pM; and B16, with 890 pM.
For B17, the Kd was 750 pM.

For a further test, the target named is T3, biotinylated human PD-L1-Avi-His (Acro …). The test can be described thus: SPR (Biacore T200), mAb on Protein A chip, antigen 81-0.037 nM. On the procedure: as §1
In turn, B18 came in with a Kd of 1100 pM.

The next test addresses T4, cynomolgus PD-L1-His (Acro Biosystems, …). The description is as above. On the procedure: as §1
B18 yielded a Kd of 1320 pM.

In another test the target is T5, mouse PD-L1-His (Acro Biosystems, PD1-M5220) (mouse, UniProt Q9EP73 19-238).
T5 construct: Bought; also called recombinant mouse PD-L1
T5 sequence (Q9EP73 19-238 limits assumed): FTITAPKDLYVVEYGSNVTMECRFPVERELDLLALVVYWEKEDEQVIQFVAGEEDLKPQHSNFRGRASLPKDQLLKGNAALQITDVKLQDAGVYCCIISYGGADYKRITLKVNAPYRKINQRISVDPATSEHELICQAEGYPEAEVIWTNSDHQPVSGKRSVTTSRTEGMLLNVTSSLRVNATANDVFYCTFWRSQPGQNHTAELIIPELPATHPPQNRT
The test can be described thus: SPR (Biacore T200), mAb on Protein A chip, antigen 81-0.037 nM; Rmax of the human profile used. As for the experimental part:
as §1
For the molecule B18, the Kd amounted to 137000 pM.

Source of the values: patent US20250270324A1 (INVOX PHARMA, published 2025).
